Where two headings read alike, the source gives them in different places. Where no end group is shown, it is not given here.
Experiments:
[1] = molecular target: 3TD of SETDB1, W358A mutant, as used in ITC and crystals (UniProt Q15047 190-410, W358A); assay: ITC
[2] = molecular target: 3TD of SETDB1, R384A mutant, as used in ITC (UniProt Q15047 190-410, alanine mutation of R384); assay: ITC
[3] = molecular target: 3TD of SETDB1, Y268A mutant, as used in ITC (UniProt Q15047 190-410, Y268A); assay: ITC
[4] = molecular target: T1, triple Tudor domain (3TD) of SETDB1, wildtype, as used in solution (ITC, NMR, crystals) (UniProt Q15047 190-410); assay: ITC
[5] = molecular target: T1, triple Tudor domain (3TD) of SETDB1, …; assay: ITC; remark: listed apart in the source
[6] = molecular target: T1, triple Tudor domain (3TD) of SETDB1, …; assay: NMR
[7] = molecular target: T2, 3TD of SETDB1, F332A mutant, as used in ITC (UniProt Q15047 190-410, F332A); assay: ITC
[8] = molecular target: T2, 3TD of SETDB1, F332A mutant, as used in …; assay: ITC; remark: listed apart in the source

Binder	Kd [1] [µM]	Kd [2] [µM]	Kd [3] [µM]	Kd [4] [µM]	Kd [5] [µM]	Kd [6] [µM]	Kd [7] [µM]	Kd [8] [µM]
KQTARK(Me3)STGGK(Ac)APRKQ [H3K9me3/K14ac peptide in solution (ITC; crystals)]	55.6	9.2	135	23.9				
KQTARKSTGGK(Ac)APRKQ [monomodified H3K14ac peptide in solution (ITC, NMR; crystal)]					> 500	930		

Further binders by falling Kd [2], results first:

Kd [1] [µM]	Kd [2] [µM]	Kd [3] [µM]	Kd [4] [µM]	Kd [5] [µM]	Kd [6] [µM]	Kd [7] [µM]	Kd [8] [µM]	Binder
	5.1	19.2	29.4					KQTARK(Me)STGGK(Ac)APRKQ [H3K9me1/K14ac peptide in solution (ITC)]
174	2.6	8.1	9.3			353	~350	KQTARK(Me2)STGGK(Ac)APRKQ [H3K9me2/K14ac peptide in solution (ITC; crystal with W358A), limits not stated]
